Assays:
Assay in all cases: cell-based or functional assay
[1] = target: HIV-1 MGRM-Chronic-B-018 Env on pseudovirus (HIV-1)
[2] = target: HIV-1 98IN022 Env on pseudovirus (HIV-1)
HIV-1 CMU02 Env (HIV-1) = target: HIV-1 CMU02 Env (HIV-1)
[3] = target: HIV-1 MGRM-C-019 Env on pseudovirus (HIV-1)
HIV-1 JRCSF Env (HIV-1) = HIV-1 JRCSF Env (HIV-1) (UniProt P20871)
[4] = target: HIV-1 MGRM-AG-011 Env (HIV-1)
[5] = target: HIV-1 MGRM-G-009 Env (HIV-1)
[6] = target: HIV-1 92UG005 Env (HIV-1)
[7] = target: HIV-1 MGRM-Chronic-B-024 Env on pseudovirus (HIV-1)
[8] = target: HIV-1 MGRM-Chronic-B-001 Env on pseudovirus (HIV-1)
[9] = target: HIV-1 TRJ0.58 (Acute) Env on pseudovirus (HIV-1)
[10] = target: HIV-1 MGRM-C-015 Env on pseudovirus (HIV-1)
[11] = target: HIV-1 MGRM-C-023 Env on pseudovirus (HIV-1)
[12] = target: HIV-1 MGRM-F1-014 Env (HIV-1)
[13] = target: HIV-1 MGRM-AE-005 Env (HIV-1)
[14] = target: HIV-1 MGRM-F1-010 Env (HIV-1)
[15] = target: HIV-1 MGRM-AE-006 Env (HIV-1)
[16] = target: HIV-1 92BR020 Env (HIV-1)
[17] = target: HIV-1 92UG046 Env (HIV-1)
[18] = target: HIV-1 MGRM-G-014 Env (HIV-1)
[19] = target: HIV-1 MGRM-D-004 Env (HIV-1)
[20] = target: HIV-1 IAVI-C18 Env (HIV-1)
[21] = target: HIV-1 MGRM-D-029 Env (HIV-1)
[22] = target: HIV-1 QH0692.42 (Acute) Env on pseudovirus (HIV-1)
[23] = target: HIV-1 MGRM-Chronic-B-008 Env on pseudovirus (HIV-1)
[24] = target: HIV-1 MGRM-G-011 Env (HIV-1)
[25] = target: HIV-1 MGRM-Chronic-B-004 Env on pseudovirus (HIV-1)
[26] = target: HIV-1 MGRM-AE-008 Env (HIV-1)
[27] = target: HIV-1 6535.3 (Acute) Env on pseudovirus (HIV-1)
[28] = target: HIV-1 MGRM-D-005 Env (HIV-1)
[29] = target: HIV-1 MGRM-C-001 Env on pseudovirus (HIV-1)
[30] = target: HIV-1 MGRM-G-013 Env (HIV-1)
HIV-1 APV-13 Env (HIV-1) = target: HIV-1 APV-13 Env (HIV-1)
HIV-1 APV-17 Env (HIV-1) = target: HIV-1 APV-17 Env (HIV-1)
[31] = target: HIV-1 MGRM-AG-003 Env (HIV-1)
[32] = target: HIV-1 MGRM-G-028 Env (HIV-1)
[33] = target: HIV-1 92UG001 Env (HIV-1)
[34] = target: HIV-1 MGRM-G-027 Env (HIV-1)
[35] = target: HIV-1 MGRM-C-014 Env on pseudovirus (HIV-1)
[36] = target: HIV-1 MGRM-Chronic-B-020 Env on pseudovirus (HIV-1)
[37] = target: HIV-1 94UG103 Env (HIV-1)
[38] = target: HIV-1 MGRM-F1-008 Env (HIV-1)
[39] = target: HIV-1 MGRM-G-004 Env (HIV-1)
[40] = target: HIV-1 MGRM-C-006 Env on pseudovirus (HIV-1)
[41] = target: HIV-1 MGRM-D-011 Env (HIV-1)
[42] = target: HIV-1 MGRM-AG-002 Env (HIV-1)
[43] = target: HIV-1 MGRM-C-002 Env on pseudovirus (HIV-1)
[44] = target: HIV-1 APV_17 Env on pseudovirus (HIV-1)
[45] = target: HIV-1 MGRM-F1-015 Env (HIV-1)
[46] = target: HIV-1 MGRM-F1-022 Env (HIV-1)
[47] = target: HIV-1 MGRM-D-021 Env (HIV-1)

## b12 (antibody)
[1]
  IC50: 0.66 µg/mL
[2]
  IC50: 0.42 µg/mL
HIV-1 CMU02 Env (HIV-1)
  IC50 (µg/ml), pseudovirus neutralization: 29.3 µg/mL
  neutralization IC50: 4.25 µg/mL
  neutralization IC90: 34.2 µg/mL
[3]
  IC50: > 50 µg/mL
HIV-1 JRCSF Env (HIV-1)
  neutralization IC50: 0.16 µg/mL
  neutralization IC90: 1.17 µg/mL
[4]
  IC50 (µg/ml), pseudovirus neutralization: > 50 µg/mL
[5]
  IC50 (µg/ml), pseudovirus neutralization: > 50 µg/mL
[6]
  IC50 (µg/ml), pseudovirus neutralization: > 50 µg/mL
  neutralization IC50: > 50 µg/mL
  neutralization IC90: > 50 µg/mL
[7]
  IC50: > 50 µg/mL
[8]
  IC50: 0.75 µg/mL
[9]
  IC50: > 50 µg/mL
[10]
  IC50: 13.3 µg/mL
[11]
  IC50: 13.9 µg/mL
[12]
  IC50 (pseudovirus neutralization): > 50 µg/mL
[13]
  IC50 (µg/ml), pseudovirus neutralization: 0.63 µg/mL
[14]
  IC50 (pseudovirus neutralization): > 50 µg/mL
[15]
  IC50 (µg/ml), pseudovirus neutralization: > 50 µg/mL
[16]
  neutralization IC50: 27.5 µg/mL
  neutralization IC90: > 50 µg/mL
[17]
  IC50 (µg/ml), pseudovirus neutralization: 0.07 µg/mL
[18]
  IC50 (µg/ml), pseudovirus neutralization: > 50 µg/mL
[19]
  IC50 (µg/ml), pseudovirus neutralization: > 50 µg/mL
[20]
  neutralization IC50: > 50 µg/mL
  neutralization IC90: > 50 µg/mL
[21]
  IC50 (µg/ml), pseudovirus neutralization: > 50 µg/mL
[22]
  IC50: 0.73 µg/mL
[23]
  IC50: 2.82 µg/mL
[24]
  IC50 (µg/ml), pseudovirus neutralization: > 50 µg/mL
[25]
  IC50: 0.26 µg/mL
[26]
  IC50 (µg/ml), pseudovirus neutralization: > 50 µg/mL
[27]
  IC50: 1.93 µg/mL
[28]
  IC50 (µg/ml), pseudovirus neutralization: > 50 µg/mL
[29]
  IC50: > 50 µg/mL
[30]
  IC50 (µg/ml), pseudovirus neutralization: > 50 µg/mL
HIV-1 APV-13 Env (HIV-1)
  neutralization IC50: > 25 µg/mL
  neutralization IC90: > 50 µg/mL
HIV-1 APV-17 Env (HIV-1)
  neutralization IC50: > 25 µg/mL
  neutralization IC90: > 50 µg/mL
[31]
  IC50 (µg/ml), pseudovirus neutralization: > 50 µg/mL
[32]
  IC50 (µg/ml), pseudovirus neutralization: > 50 µg/mL
[33]
  IC50 (µg/ml), pseudovirus neutralization: 1.01 µg/mL
[34]
  IC50 (µg/ml), pseudovirus neutralization: > 50 µg/mL
[35]
  IC50: > 50 µg/mL
[36]
  IC50: 6.16 µg/mL
[37]
  neutralization IC50: 3.54 µg/mL
  neutralization IC90: 47.3 µg/mL
[38]
  IC50 (pseudovirus neutralization): > 50 µg/mL
[39]
  IC50 (µg/ml), pseudovirus neutralization: > 50 µg/mL
[40]
  IC50: > 50 µg/mL
[41]
  IC50 (µg/ml), pseudovirus neutralization: 7.75 µg/mL
[42]
  IC50 (µg/ml), pseudovirus neutralization: 0.89 µg/mL
[43]
  IC50: > 50 µg/mL
[44]
  IC50: > 50 µg/mL
[45]
  IC50 (pseudovirus neutralization): > 50 µg/mL
[46]
  IC50 (pseudovirus neutralization): > 50 µg/mL
[47]
  IC50 (µg/ml), pseudovirus neutralization: 5.23 µg/mL

Source: US20160264649A1
